Laboratory results published in the supplement of paper PMC11246515.
± gives the standard deviation of the averaged measurements.

Assay: total protein half-life in vivo (active degradation + dilution); higher = more stable protein
[1] = E. coli NCM3722 delta-clpP delta-lon delta-hslV, growth: N-lim chemostat, doubling time 6 h
[2] = E. coli NCM3722 delta-hslV, growth: N-lim chemostat, doubling time 6 h
[3] = E. coli NCM3722 delta-lon, growth: N-lim chemostat, doubling time 6 h
[4] = E. coli NCM3722 delta-smpB, growth: N-lim chemostat, doubling time 6 h
[5] = wild type E. coli NCM3722, growth: C-lim chemostat, doubling time 3 h
[6] = wild type E. coli NCM3722, growth: C-lim chemostat, doubling time 12 h
[7] = wild type E. coli NCM3722, growth: N-lim chemostat, doubling time 6 h
[8] = wild type E. coli NCM3722, growth: N-lim chemostat, doubling time 12 h
[9] = wild type E. coli NCM3722, growth: P-lim chemostat, doubling time 6 h
[10] = wild type E. coli NCM3722, growth: P-lim chemostat, doubling time 12 h
[11] = E. coli NCM3722 delta-clpP, growth: N-lim chemostat, doubling time 6 h
[12] = wild type E. coli NCM3722, growth: C-lim chemostat, doubling time 6 h

| Sequence | total protein half-life in vivo [1] [h] | total protein half-life in vivo [2] [h] | total protein half-life in vivo [3] [h] | total protein half-life in vivo [4] [h] | total protein half-life in vivo [5] [h] | total protein half-life in vivo [6] [h] | total protein half-life in vivo [7] [h] | total protein half-life in vivo [8] [h] | total protein half-life in vivo [9] [h] | total protein half-life in vivo [10] [h] | total protein half-life in vivo [11] [h] | total protein half-life in vivo [12] [h] |
| --- | --- | --- | --- | --- | --- | --- | --- | --- | --- | --- | --- | --- |
| MMEFILSHVEKGVMTLTLNRPERLNSFNDEMHAQLAECLKQVERDDTIRCLLLTGAGRGFCAGQDLNDRNVDPTGPAPDLGMSVERFYNPLVRRLAKLPKPVICAVNGVAAGAGATLALGGDIVIAARSAKFVMAFSKLGLIPDCGGTWLLPRVAGRARAMGLALLGNQLSAEQAHEWGMIWQVVDDETLADTAQQLARHLATQPTFGLGLIKQAINSAETNTLDTQLDLERDYQRLAGRSADYREGVSAFLAKRSPQFTGK | 4.04 | – | – | – | – | – | – | – | – | – | – | – |
| MMKKPVVIGLAVVVLAAVVAGGYWWYQSRQDNGLTLYGNVDIRTVNLSFRVGGRVESLAVDEGDAIKAGQVLGELDHKPYEIALMQAKAGVSVAQAQYDLMLAGYRNEEIAQAAAAVKQAQAAYDYAQNFYNRQQGLWKSRTISANDLENARSSRDQAQATLKSAQDKLRQYRSGNREQDIAQAKASLEQAQAQLAQAELNLQDSTLIAPSDGTLLTRAVEPGTVLNEGGTVFTVSLTRPVWVRAYVDERNLDQAQPGRKVLLYTDGRPDKPYHGQIGFVSPTAEFTPKTVETPDLRTDLVYRLRIVVTDADDALRQGMPVTVQFGDEAGHE | 6.76 ± 0.87 | 6.75 ± 0.14 | 6.47 ± 0.38 | 6.26 ± 0.13 | 3.39 ± 0.38 | 11.2 ± 1.9 | 6.2 ± 0.46 | 13.54 ± 0.12 | 6.02 ± 0.17 | 14.2 ± 0.91 | – | – |
| MSKQLTAQAPVDPIVLGKMGSSYGIRGWLRVFSSTEDAESIFDYQPWFIQKAGQWQQVQLESWKHHNQDMIIKLKGVDDRDAANLLTNCEIVVDSSQLPQLEEGDYYWKDLMGCQVVTTEGYDLGKVVDMMETGSNDVLVIKANLKDAFGIKERLVPFLDGQVIKKVDLTTRSIEVDWDPGF [P0A7X6] | 5.56 ± 0.28 | 3.38 | 4.04 ± 1.9 | 3.79 | 2.65 ± 0.43 | 7.94 ± 0.8 | – | 5.22 | – | 3.98 ± 0.42 | 3.21 | 4.72 ± 0.19 |
| MMVIRPVERSDVSALMQLASKTGGGLTSLPANEATLSARIERAIKTWQGELPKSEQGYVFVLEDSETGTVAGICAIEVAVGLNDPWYNYRVGTLVHASKELNVYNALPTLFLSNDHTGSSELCTLFLDPDWRKEGNGYLLSKSRFMFMAAFRDKFNDKVVAEMRGVIDEHGYSPFWQSLGKRFFSMDFSRADFLCGTGQKAFIAELMPKHPIYTHFLSQEAQDVIGQVHPQTAPARAVLEKEGFRYRNYIDIFDGGPTLECDIDRVRAIRKSRLVEVAEGQPAQGDFPACLVANENYHHFRVVLVRTDPATERLILTAAQLDALKCHAGDRVRLVRLCAEEKTA [P0AE37] | 5.43 ± 0.59 | 2.96 ± 0.92 | 2.88 ± 0.041 | 2.78 ± 0.33 | 2.58 ± 0.12 | 9.68 ± 2.2 | 2.452 ± 0.0032 | 3.22 ± 0.69 | 4.07 ± 0.25 | 9.08 ± 0.78 | 2.85 ± 0.19 | 4.56 ± 0.31 |
| MGNRTKEDELYREMCRVVGKVVLEMRDLGQEPKHIVIAGVLRTALANKRIQRSELEKQAMETVINALVK [P0ACX5] | – | 3.93 | – | – | > 4 | – | – | 15.3 | 5.05 ± 1.9 | 12.6 ± 1.2 | – | 4.79 |
| MAKNYYDITLALAGICQSARLVQQLAHQGHCDADALHVSLNSIIDMNPSSTLAVFGGSEANLRVGLETLLGVLNASSRQGLNAELTRYTLSLMVLERKLSSAKGALDTLGNRINGLQRQLEHFDLQSETLMSAMAAIYVDVISPLGPRIQVTGSPAVLQSPQVQAKVRATLLAGIRAAVLWHQVGGGRLQLMFSRNRLTTQAKQILAHLTPEL | 6.52 ± 1.1 | 6.17 ± 0.66 | 5.23 ± 0.89 | 6 ± 0.18 | 3.36 ± 0.65 | 12.2 ± 2.8 | 5.449 ± 0.017 | 10.6 ± 0.7 | 6.04 ± 0.18 | 13.2 ± 0.51 | 5.78 ± 0.42 | 5.87 ± 0.23 |
| MKKAIAYMRFSSPGQMSGDSLNRQRRLIAEWLKVNSDYYLDTITYEDLGLSAFKGKHAQSGAFSEFLDAIEHGYILPGTTLLVESLDRLSREKVGEAIERLKLILNHGIDVITLCDNTVYNIDSLNEPYSLIKAILIAQRANEESEIKSSRVKLSWKKKRQDALESGTIMTASCPRWLSLDDKRTAFVPDPDRVKTIELIFKLRMERRSLNAIAKYLNDHAVKNFSGKESAWGPSVIEKLLANKALIGICVPSYRARGKGISEIAGYYPRVISDDLFYAVQEIRLAPFGISNSSKNPMLINLLRTVMKCEACGNTMIVHAVSGSLHGYYVCPMRRLHRCDRPSIKRDLVDYNIINELLFNCSKIQPVENKKDANETLELKIIELQMKINNLIVALSVAPEVTAIAEKIRLLDKELRRASVSLKTLKSKGVNSFSDFYAIDLTSKNGRELCRTLAYKTFEKIIINTDNKTCDIYFMNGIVFKHYPLMKVISAQQAISALKYMVDGEIYF | > 8 | – | – | – | 1.41 | 1.97 | – | 14 | – | – | 1.49 | – |
| MRILLSNDDGVHAPGIQTLAKALREFADVQVVAPDRNRSGASNSLTLESSLRTFTFENGDIAVQMGTPTDCVYLGVNALMRPRPDIVVSGINAGPNLGDDVIYSGTVAAAMEGRHLGFPALAVSLDGHKHYDTAAAVTCSILRALCKEPLRTGRILNINVPDLPLDQIKGIRVTRCGTRHPADQVIPQQDPRGNTLYWIGPPGGKCDAGPGTDFAAVDEGYVSITPLHVDLTAHSAQDVVSDWLNSVGVGTQW [P0A840] | 4.833 ± 0.047 | 4.1 ± 0.25 | – | 3.71 ± 0.83 | 3.04 ± 0.33 | 8.36 ± 0.48 | 4.5 | 5.84 ± 1.5 | – | – | 4.03 | 6.21 ± 0.81 |
